Measured values published in patent US20250163164A1 (LANOVA MEDICINES DEVELOPMENT, published 2025).
Where a chain is given by its changes, count along the chain named. Values joined by “and” are separate entries in the source; they are usually repeats but may differ in a detail not shown here. Equal values may be shown once. Each block holds one binder with its values, some of them ahead of it.

Molecular target: T1, human interleukin 13 receptor subunit alpha 2 (IL-13RA2) (human, UniProt Q14627 27-380)
T1 construct: whole, on cells; also called IL-13Rα2; CD213A2
T1 sequence (looked up): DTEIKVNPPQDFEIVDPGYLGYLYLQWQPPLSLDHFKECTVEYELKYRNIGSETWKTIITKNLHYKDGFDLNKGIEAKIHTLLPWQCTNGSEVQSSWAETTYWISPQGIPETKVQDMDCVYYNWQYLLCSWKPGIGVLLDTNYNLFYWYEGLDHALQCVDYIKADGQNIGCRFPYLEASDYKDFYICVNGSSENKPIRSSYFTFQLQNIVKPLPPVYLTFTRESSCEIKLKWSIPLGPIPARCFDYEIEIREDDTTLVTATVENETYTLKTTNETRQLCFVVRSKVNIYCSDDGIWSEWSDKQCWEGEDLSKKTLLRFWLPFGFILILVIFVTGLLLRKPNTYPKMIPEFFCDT
Assay: FACS on A375 cells
Procedure: A375 cells that endogenously expressed IL-13RA2, were harvested from flasks. 100 μl of 1×10⁶ cells/ml of cells were incubated with primary humanized antibodies in 4-fold serial dilutions starting from 200 nM to 0.003 nM for 30 minutes on ice. After being washed with 200 μl of FACS buffer twice, cells were incubated with secondary antibody for 30 minutes on ice. Cells were washed with 200 μl of FACS buffer twice and analyzed by FACS.

- EC50: 2.75 nM
- Top (MFI): 8360 MFI
B1: 72B4H4 H2L1 hIgG1 (antibody, V domains shown)
VH: QVQLVQSGAEVVKPGASVKVSCKASGYTFTNYWMNWVRQAPGQGLEWIGRIDAYAGETHYNQKFKDRVTMTVDTSTSTVYMELSSLRSEDTAVYYCARGYGDAYGMDHWGQGTLVTVSS
VL: DIQMTQSPSSLSASVGDRVTITCRASESVDNYGISFMNWYQQKPGKAPKLLIYAASRQGSGVPSRFSGSGSGTDFTLTISSLQPEDFATYYCQQSKEVPWTFGQGTKVEIK
notes: humanized, hIgG1

- EC50: 1.18 nM
- Top (MFI): 8180 MFI
B2: 72B4H4 H4L4 hIgG1 (antibody, V domains shown)
VH: B1 VH with V20L, R38K, A40R, V68A, T69I, M70L, T74K, V79A, S84R
VL: B1 VL with Q3V, M4L, V19A, Y40F, A47P, V62D, S64A, Y91F, Q104G, V108L
notes: humanized, hIgG1

- EC50: 1.44 nM
- Top (MFI): 8550 MFI
B3: 72B4H4 H3L2 hIgG1 (antibody, V domains shown)
VH: B1 VH with V20L, R38K, V68A, M70L, T74K
VL: B1 VL with Y40F, V62D, Y91F
notes: humanized, hIgG1

- EC50: 0.976 nM
- Top (MFI): 8610 MFI
B4: 72B4H4 H4L2 hIgG1 (antibody, V domains shown)
VH: B1 VH with V20L, R38K, A40R, V68A, T69I, M70L, T74K, V79A, S84R
VL: B1 VL with Y40F, V62D, Y91F
notes: humanized, hIgG1

- EC50: 1.66 nM
- Top (MFI): 8780 MFI
B5: 72B4H4 H3L3 hIgG1 (antibody, V domains shown)
VH: B1 VH with V20L, R38K, V68A, M70L, T74K
VL: B1 VL with M4L, Y40F, V62D, S64A, Y91F, Q104G
notes: humanized, hIgG1

- EC50: 0.83 nM
- Top (MFI): 8420 MFI
B6: 72B4H4 H2L3 hIgG1 (antibody, V domains shown)
VH: B1 VH
VL: B1 VL with M4L, Y40F, V62D, S64A, Y91F, Q104G
notes: humanized, hIgG1

- EC50: 0.811 nM
- Top (MFI): 8470 MFI
B7: 72B4H4 H4L3 hIgG1 (antibody, V domains shown)
VH: B1 VH with V20L, R38K, A40R, V68A, T69I, M70L, T74K, V79A, S84R
VL: B1 VL with M4L, Y40F, V62D, S64A, Y91F, Q104G
notes: humanized, hIgG1

- EC50: 0.552 nM
- Top (MFI): 8270 MFI
B8: 72B4H4 H4L1 hIgG1 (antibody, V domains shown)
VH: B1 VH with V20L, R38K, A40R, V68A, T69I, M70L, T74K, V79A, S84R
VL: B1 VL
notes: humanized, hIgG1

- EC50: 1.36 nM
- Top (MFI): 8770 MFI
B9: 72B4H4 H3L4 hIgG1 (antibody, V domains shown)
VH: B1 VH with V20L, R38K, V68A, M70L, T74K
VL: B1 VL with Q3V, M4L, V19A, Y40F, A47P, V62D, S64A, Y91F, Q104G, V108L
notes: humanized, hIgG1

- EC50: 1.14 nM
- Top (MFI): 8830 MFI
B10: 72B4H4 H3L1 hIgG1 (antibody, V domains shown)
VH: B1 VH with V20L, R38K, V68A, M70L, T74K
VL: B1 VL
notes: humanized, hIgG1

- EC50: 1.18 nM
- Top (MFI): 8630 MFI
B11: 72B4H4 H2L4 hIgG1 (antibody, V domains shown)
VH: B1 VH
VL: B1 VL with Q3V, M4L, V19A, Y40F, A47P, V62D, S64A, Y91F, Q104G, V108L
notes: humanized, hIgG1

- EC50: 0.67 nM
B12: 73A11E2 H2L2 hIgG1 (antibody, V domains shown)
VH: QVQLVQSGAEVVKPGASVKVSCKASGFTFSSYGMSWVRQAPGQGLEWVGTISGGGSYTYYPESVKGRFTITRDTSTSTAYMELRSLRSDDTAVYYCARRDLRSAMDYWGQGTLVTVSS
VL: DIVMTQSPLSLPVTLGQPASISCKASQNVDINVAWYQQRPGQSPRALIYSASYRYSGVPDRFSGSGSGTDFTLKISRVEAEDVGVFYCQQYNAYPLTFGQGTKLEIK
notes: humanized, hIgG1

- EC50: ~251 nM and ~522 nM
B13: 73A11E2 H1L3 hIgG1 (antibody, V domains shown)
VH: B12 VH with V12K, V48M, F68V, I70M, R72T
VL: B12 VL with V13T, K74T, Q100G
notes: humanized, hIgG1

- EC50: 1.61 nM and 0.66 nM
B14: 73A11E2 H2L4 hIgG1 (antibody, V domains shown)
VH: B12 VH
VL: B12 VL with V13T, A19V, I21V, K74T, G84A, Y87F, Q100G
notes: humanized, hIgG1

- EC50: 0.6 nM and 0.56 nM
B15: 73A11E2 H2L1 hIgG1 (antibody, V domains shown)
VH: B12 VH
VL: B12 VL with I2V, Y36F, A46R, F86Y
notes: humanized, hIgG1

- EC50: 0.69 nM and 0.67 nM
B16: 73A11E2 H2L3 hIgG1 (antibody, V domains shown)
VH: B12 VH
VL: B12 VL with V13T, K74T, Q100G
notes: humanized, hIgG1
